Data reported in publication doi:10.1101/2021.12.23.474050.

Biological target: wild-type (WT) RBD of the SARS-CoV-2 spike protein (SARS-CoV-2) (UniProt P0DTC2)
Assay: ITC

CC12.1 ScFv
Kd: 23.9 nM
